Measured values taken from publication PMC3107886.

Tests used:
[1] = target: soluble HLA-DR1 loaded with A2 peptide (human); assay: SEC
[2] = target: soluble gHgL (gH residue 18-679 and gL residue 24-137) (Epstein-Barr virus) (UniProt P03231); assay: SEC
Chain of UniProt P03231 (P03231 18-679 limits assumed, chain 1 of 2): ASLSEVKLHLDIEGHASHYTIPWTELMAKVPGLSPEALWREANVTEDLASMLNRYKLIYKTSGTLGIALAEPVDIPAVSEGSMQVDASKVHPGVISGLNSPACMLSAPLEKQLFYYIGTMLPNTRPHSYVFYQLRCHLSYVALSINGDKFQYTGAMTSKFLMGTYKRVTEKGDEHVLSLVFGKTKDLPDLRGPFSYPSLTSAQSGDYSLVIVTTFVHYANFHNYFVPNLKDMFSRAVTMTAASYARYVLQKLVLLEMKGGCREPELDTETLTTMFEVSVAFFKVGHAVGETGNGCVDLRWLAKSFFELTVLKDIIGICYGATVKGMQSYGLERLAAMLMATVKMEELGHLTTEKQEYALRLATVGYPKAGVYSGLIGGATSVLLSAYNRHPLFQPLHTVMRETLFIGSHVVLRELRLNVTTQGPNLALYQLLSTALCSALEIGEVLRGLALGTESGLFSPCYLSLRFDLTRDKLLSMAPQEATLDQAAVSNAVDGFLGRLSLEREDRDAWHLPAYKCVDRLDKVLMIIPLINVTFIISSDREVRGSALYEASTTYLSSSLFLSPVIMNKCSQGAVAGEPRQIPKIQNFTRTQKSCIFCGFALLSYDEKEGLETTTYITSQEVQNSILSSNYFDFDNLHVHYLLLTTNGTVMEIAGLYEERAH
Chain of UniProt P03231 (P03212 24-137 limits assumed, chain 2 of 2, further chain): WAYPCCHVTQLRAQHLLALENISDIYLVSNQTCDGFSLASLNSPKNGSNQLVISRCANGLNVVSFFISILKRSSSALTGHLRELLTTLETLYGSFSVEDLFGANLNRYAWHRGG

Question: How did the stoichiometry N (gp42 per HLA-DR1) [1] turn out when “soluble gp42 (residue 33-223) (from UniProt P03205 33-223) (domain or fragment)” was run?
Answer: Its stoichiometry N (gp42 per HLA-DR1) is 1.

Question: And the stoichiometry N (gp42 per gHgL) [2]?
Answer: Its stoichiometry N (gp42 per gHgL) is 1.
